Source: patent US9803012B2, “Compositions and methods for regulating SAS1R” (UNIVERSITY OF VIRGINIA PATENT FOUNDATION, priority 2005, dated 2017)

How the values were obtained:
[1] = tested on: cumulus intact oocytes; experiment: In vitro fertilization with cumulus-oocyte complexes (SLLP1 antiserum, recmSLLP1); format: cell-based, mouse; settings: for % Fertilization: oocytes 45 min prior to insemination
Protocol: Hybrid F1 mice (C57BL/6J×CBA) were used in all experiments. Suspensions of epididymal spermatozoa from sexually mature male mice were prepared for insemination of isolated oocytes. Oocytes were obtained from 28-day-old females superovulated with 10 IU PMSG and 10 IU hCG, injected intraperitoneally 48 h apart. Females were killed 16 h after hCG injection and both oviducts were immediately removed and placed in mineral oil.
In vitro fertilization with cumulus intact oocytes was conducted with sperm dispersed from cauda epididymides placed for 5 min in 200 μl drops of fertilization medium under paraffin oil. The sperm suspension was diluted to a concentration of 10^6 sperm/ml in a volume of 200 μl and then incubated for 120 min in a humidified tissue culture incubator (37° C., 5% CO2 in air) to allow capacitation. In the experiments where anti-recmSLLP1 serum was tested, spermatozoa were incubated with varying concentrations of decomplemented (56° C., 30 min) immune or preimmune serum for the last 45 min of capacitation. In the experiments where recmSLLP1 was evaluated, spermatozoa were incubated under standard capacitating conditions.
Cumulus masses were placed in 135 μl drops of fertilization medium (one mass per drop) under paraffin oil and were incubated for 45 min with immune or preimmune serum or in presence or absence of recmSLLP1 prior to insemination. Fifteen μl of the sperm suspension (final concentration: 10^5 sperm/ml) was then added to each cumulus mass drop. Thus, sera or recombinant protein was present in the incubation droplet during gamete interaction. Six hours following insemination oocytes were relocated in 100 μl drops of fertilization medium under mineral oil. Following overnight incubation, eggs were stained in Hoechst dye (10 μg/ml) for 10 min and washed 3 times in fertilization medium. The eggs were then placed in a 5 μl drop of fertilization medium between a microscope slide and an elevated coverslip, and visualized at 160× using light and fluorescence microscopy (Zeiss Axioplan). Two cells embryos were scored as fertilized, while one-celled oocytes were scored as unfertilized.

[2] = tested on: zona-free mouse eggs; experiment: In vitro fertilization with zona-free eggs (sperm-oolemma binding and fusion); format: cell-based
[3] = target: T1, recombinant MET (Mus musculus, UniProt Q9CWU5); experiment: Far-Western analysis of MET and SLLP1; format: binding; settings: 7 μg recombinant MET, recombinant SLLP1 overlay 2 μg/ml
T1 construct: A complete cDNA encoding 440 amino acids was amplified from cDNA library (Ambion) of mouse ovary and cloned in pET expression vector; His-tag (pET fusion); made in house; host or cells: E. coli BL21
T1 sequence (Q9CWU5 1-440): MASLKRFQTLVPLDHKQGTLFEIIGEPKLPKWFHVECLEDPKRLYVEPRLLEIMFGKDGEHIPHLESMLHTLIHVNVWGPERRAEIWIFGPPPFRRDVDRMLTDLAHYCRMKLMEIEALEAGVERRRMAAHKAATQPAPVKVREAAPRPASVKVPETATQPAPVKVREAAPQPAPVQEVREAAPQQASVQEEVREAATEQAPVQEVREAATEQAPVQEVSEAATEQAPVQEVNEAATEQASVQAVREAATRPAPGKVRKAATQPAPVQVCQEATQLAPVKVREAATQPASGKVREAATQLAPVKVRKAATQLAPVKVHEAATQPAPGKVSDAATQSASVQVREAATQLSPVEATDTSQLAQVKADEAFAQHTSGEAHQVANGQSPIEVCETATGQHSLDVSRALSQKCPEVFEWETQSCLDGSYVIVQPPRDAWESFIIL
T1 sequence (Q9D9X8 94-221 partner limits assumed): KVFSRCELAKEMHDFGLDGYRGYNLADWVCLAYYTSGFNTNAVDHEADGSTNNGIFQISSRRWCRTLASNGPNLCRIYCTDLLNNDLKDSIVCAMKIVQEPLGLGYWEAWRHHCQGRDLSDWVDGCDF
Protocol: To that end, 7 μg of recombinant MET was loaded on 12% SDS-PAGE and transferred to nitrocellulose. The membrane was overlaid (OL) with recombinant SLLP1 (2 μg/ml) and probed with anti-SLLP1 monoclonal antibody and secondary antibody.

[4] = tested on: Metaphase II eggs; experiment: Egg labeling by indirect immunofluorescence; format: cell-based, mouse; settings: 100 μg/ml protein, 45 min
Protocol: Metaphase II eggs were obtained as previously described (Coonrod et al, 1999) and incubated with 5% NGS/media for 30 min. Oocytes were washed five times in TYH medium and incubated with 100 μg/ml recmSLLP1 or 100 μg/ml lysozymes for 45 min at 37° C. and 5% CO2. Oocytes were washed five times and incubated with guinea pig anti-recmSLLP1 polyclonal antibody (1:50), sheep anti-human lysozyme (1:25) or rabbit anti-chicken lysozyme (1:400) in 5% NGS/media for 1 h at 37° C. and 5% CO2. Oocytes were washed five times and incubated with donkey anti-guinea pig/Texas Red antibody (1:200) or goat anti-guinea pig/FITC antisera 1:200), donkey anti-sheep and goat anti-rabbit FITC-labeled secondary antibody (1:200) (Jackson ImmunoResearch), respectively in 5% NGS/media for 1 h at […] 37° C. and 5% CO2. Oocytes were washed and mounted in media onto glass slides and visualized under a Zeiss Standard 18 ultraviolet microscope. Images were captured by using MrGrab 1.0 (Carl Zeiss Vision GmbH, Germany).

[5] = tested on: zona-free mouse eggs; experiment: In vitro fertilization with zona-free eggs (sperm-oolemma binding and fusion); format: cell-based; remark: listed apart in the source
Protocol: For the sperm-oolemma binding assay, two cauda epididymides were placed in 900 μl drops of fertilization medium under paraffin oil for the dense mass of spermatozoa to flow freely for ˜15 min and then diluted at 1×10^6/ml for 3 h of capacitation. Cumulus oocyte complexes were placed in 200 μl drops of TYH medium under paraffin oil. Cumulus cells were removed by treating the oocytes for 3 min with 1 mg/ml hyaluronidase in TYH medium and then washed 8 times in 50 μl drops. Zona pellucidae were loosened by treating the oocytes with 10 μg/ml chymotrypsin in TYH media for 1 min and loosened zonae were removed by mechanical agitation using a pulled Pasteur pipette. The oocytes were then washed 10 times and allowed to recover from chymotrypsin treatment by incubating in TYH media for 3 h, following which, they were stained with 10 μg/ml Hoechst dye for 10 min, and then gently washed. […]
To compare the effects of recmSLLP1 with human and chicken c lysozymes, spermatozoa were first incubated under standard capacitating conditions. Oocytes were pre-incubated for 45 min before insemination with recmSLLP1 (0.1 to 200 μg/ml) or with hSLLP1 (25 μg/ml) or with chicken or human lysozyme (50 μg/ml, 100 μg/ml). Untreated capacitated sperm were then added to the incubation drops containing the treated eggs with a final sperm concentration of 2.5×10^4/ml. Thus, in all the experiments performed the sera, the recombinant protein, or the lysozyme was present in the incubation droplet during gamete interaction. After 30 min of gamete co-incubation, oocytes were gently washed 5 times in TYH medium and placed between a microscope slide and an elevated coverslip and visualized at 160×. Binding to the oocyte was scored by counting the number of bound spermatozoa per oocyte using phase contrast. Fusion with the egg was scored by counting the number of decondensed sperm heads within each oocyte using fluorescence microscopy.

[6] = recmSLLP1 200 μg/ml (12.5 μM), oocytes pre-incubated
[7] = relative to the controls, including recombinant egg protein ePAD

B1: recmSLLP1: mature mouse SLLP1, residues 94 to 221, six-histidine C terminal tag, expressed in E. coli, about 15 kDa (protein)
chain: KVFSRCELAKEMHDFGLDGYRGYNLADWVCLAYYTSGFNTNAVDHEADGSTNNGIFQISSRRWCRTLASNGPNLCRIYCTDLLNNDLKDSIVCAMKIVQEPLGLGYWEAWRHHCQGRDLSDWVDGCDF
modifications: left off: small tags and cut ends
Q: With B1 as the molecule, how does the “difference in percentage of fertilization vs control” value ([1]; recmSLLP1 50 μg/ml) read?
A: no significant difference

Q: And the “% Fertilization” value ([1]; recmSLLP1 50 μg/ml)?
A: 48%

Q: And the “inhibition of fertilization rate vs control” value ([1]; recmSLLP1 200 μg/ml, P≦0.05)?
A: 73%

Q: And the “% Fertilization” value ([1]; recmSLLP1 200 μg/ml)?
A: 12%

Q: And the “percentages of motile spermatozoa compared to the control” value [2]?
A: no difference

Q: And the “binding to purified MET” value [3]?
A: strong signal

Q: What about the “fluorescence of mouse oocytes after incubation with protein and respective antibody” value [4] of the same molecule?
A: fluorescent labeling within the perivitelline space and over much of the oocyte surface

Q: What about the “sperm-egg binding and fusion” value ([5]; 50 μg of mouse SLLP1) of the same molecule?
A: maximally inhibited

Q: What about the inhibition of binding [5, 6] of the same molecule?
A: 100%

Q: And the inhibition of fusion [5, 6]?
A: 100%

Q: What about the “lowest concentration with significant effect on spermatozoa bound to or fused to the egg” value ([5]; recmSLLP1 0.1-200 μg/ml) of the same molecule?
A: 0.1 µg/mL

Q: And the “sperm-egg binding, number of sperm bound/egg” value [5, 7]?
A: essentially completely inhibit

Q: And the sperm-egg fusion [5, 7]?
A: essentially completely inhibit
